For data set [1], the system named is patients with Acute Ischemic Stroke (AIS). Put plainly: Study 201: Phase 2 single-dose study in patients with Acute Ischemic Stroke, efficacy (NIHSS, mRS). The data set is classed as in vivo, human. The note with it: Day 90. The source says:
The objective of this Phase 2, double-blind, single-dose, randomized, placebo-controlled study is to evaluate the safety, tolerability, and potential efficacy of DC009 drug product in patients with Acute Ischemic Stroke (AIS). The safety and potential efficacy outcomes from this Phase 2 study will guide the design of future studies in patients with acute ischemic stroke. Eligible patients will be randomized 2:1 to receive DC009 drug product or placebo via a 15-minute IV infusion to obtain a total of approximately 24 evaluable patients. Eligible patients will receive a single 0.025 mg/kg dose of DC009 drug product or placebo within 24 hours after the onset of stroke symptoms.
The key inclusion criteria are as follows: Subject a) are to be aged 18-90 years, inclusive, at the time of screening, b) have a NIHSS of 4-30, c) clinical diagnosis of AIS within 24 hours after stroke symptom onset.
Tissue plasminogen activator (alteplase) is the only approved drug treatment for stroke in the US and, per the labeling, must be administered within 3 hours of stroke symptom onset. The approved window of administration in other countries varies. Because there is no approved drug treatment for acute ischemic stroke for administration beyond 3 hours of stroke symptom onset in the US, a placebo-controlled study would be ethically acceptable and is necessary in order to evaluate the drug effect objectively. Preliminary efficacy will be evaluated by assessing the infarct volume, occurrence of recurrent stroke, neurological outcome measured by NIHSS and functional independence measured by Modified Rankin Scale (mRS).
• The occurrence of symptomatic intracranial hemorrhage (sICH) within 36 hours after dosing, clinical deterioration defined as an increase in the NIHSS of 4 points or more and confirmed by computed tomography or magnetic resonance imaging. Secondary Endpoint: • The occurrence of symptomatic intracranial hemorrhage (sICH) and asymptomatic intracranial hemorrhage (aICH) within 7 days after dosing • The occurrence of mortality due to intracerebral or other major bleeding complications within 24 hours, 7 days, 30 days, and 90 days after dosing. • Number and severity of AEs within 90 days after dosing • The occurrence of recurrent stroke within 90 days after dosing • Functional outcome such as mRS • Neurological outcome such as NIHSS at 30 days • The change of infarct volume in CT or MRI examination at 24 hours and 7 days • Plasma PK parameters of DC009 Results Baseline Characterization

Data set [2] can be described thus: Plasma pharmacokinetics after single IV bolus in Sprague Dawley rat. The following applies: for AUC(0-inf) / Cmax / AUC(0-t): male, Sprague-Dawley, rat, plasma, n=3; for AUC(0-t): read-out: AUClast, Mean (converted). The data set is classed as in vivo. On the procedure:
The plasma pharmacokinetics of DC009 was studied in SD Rat following a single IV bolus administration of DC009. Male SD rats were dosed with DC009 at 0.001, 0.01, 0.1, 1 and 10 mg/kg by intravenous bolus injection with a dose volume of 1 mL/kg (n=3 per treatment group).

Another data set concerns minipigs. Put plainly: Pre-clinical toxicity in minipig. It is filed as in vivo. The note with it: set from pre-clinical toxicity result in minipigs. The procedure: According to inventors' pre-clinical toxicity result of DC009 in minipig, the inventors set up a limit on plasma exposure of 1177 ng/mL in minipigs. The inventors then set up a safety factor to provide a margin of safety for protecting human subjects receiving the initial clinical dose. As described in the Background, the default safety factor is 10 but it may be adjusted based on available safety data.

Data set [3] in a line: Human plasma pharmacokinetics, summary statements of the description. It is filed as in vivo.
Data set [4] concerns subjects with acute ischemic stroke (AIS). The following applies: cited from earlier work.
The mark [5] stands for this setting: 0.001 mg/kg IV bolus, some concentrations below LLOQ 5 ng/mL.
Where [6] appears, read: 0.01 mg/kg IV bolus, some concentrations below LLOQ 5 ng/mL.

Consider 2 molecules from US12648942B2, “Method for treating acute ischemic stroke” (Lumosa Therapeutics Co., LTD, priority 2021, dated 2026).

Read-outs that look alike come from different tables or passages of the source. A value given as a limit tells only on which side of the number the result lay.

On to `CC(NC(=O)C1CCCN1)C(=O)NC(CCCCN)C(=O)NCCCCC(NC(=O)C1Cc2cc(O)c(O)cc2C(C)(C)N1)C(=O)O` (stereo not drawn) [DC009, 3S-6,7-dihydroxy-1,1-dimethyl-1,2,3,4-tetrahydro-isoquinoline-3-acyl-Lys(Pro-Ala-Lys)], for which the “subjects with mRS of 0-1” value in data set [1] (pre-dose 0%, 3 subjects) is 21%. Besides, the “subjects with mRS Score 3” value in data set [1] (pre-dose 6%) was determined as 29%. In addition, the “subjects with mRS Score 2” value in data set [1] (pre-dose 13%) is on record as 29%. Further, the “subjects with mRS Score 5 or 4” value in data set [1] (pre-dose 81%) was 21%. Moreover, the “dose proportionality of Cmax and AUC0-∞” value in data set [2] (dose of 0.1 to 10 mg/kg groups) is listed as “approximately dose-proportional increases”. Also, the AUC(0-inf) in data set [2] (setting [5]) is 1.88 ng·h/mL; in data set [2] (setting [6]), 4.04 ng·h/mL; in data set [2] (0.1 mg/kg IV bolus), 8.31 ng·h/mL; in data set [2] (1 mg/kg IV bolus), 53.2 ng·h/mL; in data set [2] (10 mg/kg IV bolus) it was 937 ng·h/mL. Besides, the Cmax came to 1.6 ng/mL in data set [2] (setting [5]); 6.1 ng/mL in data set [2] (setting [6]); 59.9 ng/mL in data set [2] (0.1 mg/kg IV bolus); 426 ng/mL in data set [2] (1 mg/kg IV bolus); 8120 ng/mL in data set [2] (10 mg/kg IV bolus). Besides, the AUC(0-t) in data set [2] (setting [5]) was 1.76 ng·h/mL; in data set [2] (setting [6]), 3.35 ng·h/mL; in data set [2] (0.1 mg/kg IV bolus) it was 7.89 ng·h/mL; in data set [2] (1 mg/kg IV bolus), 52.8 ng·h/mL; in data set [2] (10 mg/kg IV bolus) it was 936 ng·h/mL. In addition, the “limit on plasma exposure” value with minipigs was 1177 ng/mL. For the same molecule, the “accumulation on multiple doses” value in data set [3] (administration of multiple doses) is on record as “does not lead the accumulation”. Besides, in data set [3] (human plasma, 30 minutes after dosing), the “plasma level after dosing” value is on record as “almost un-measurable”. Besides, the half-life in data set [3] (human plasma, read-out: elimination half-life) is less than 5 min.
Regarding “rtPA: Alteplase (Activase), a recombinant tissue-type plasminogen activator (rtPA) [reference compound]”, the “risk of symptomatic intracerebral hemorrhage” value in data set [4] is listed as roughly 5 fold.

As usually defined, the AUC(0-inf) is total exposure, with the tail of the curve extrapolated. A low value points to low exposure. As usually defined, the Cmax is the maximum level reached in the sampled fluid or tissue. Usually half-life stands for the time needed for the level to fall by half in the phase considered.
